Where two headings read alike, the source gives them in different places.
Columns and labels:
L1210 leukemia cells = assay: Survival of mice transplanted with L1210 leukemia cells (FIG. 4); assay type: in vivo; conditions: DBA2 mice; AraC 1000 mg/kg IP Days 2, 5, 8; DNase II 15 or 45 mg/kg/day IP; alone or combined
Description: Treatment with DNase and AraC was initiated on Day 1 of experiment. Cytosine arabinoside (AraC; Cytosar, Pfizer) was injected IP at a dose of 1000 mg/kg on Days 2, 5 and 8. The injected doses were considered adequate for the model and injection route based on prior experiments (13-14). DNase II (Wornington) was injected IP at doses of 15 mg/kg/day and 45 mg/kg/day on Days 1, 3, 5, 8, 10, 12, 15, 17, and 19.
Animals were randomized into 6 experimental groups of 6 mice per group as follows: • 1. Group I: negative control (no treatment); • 2. Group II: positive control (animals treated with AraC); • 3. […]; • 4. Group IV: animals treated with AraC and 45 mg/kg DNase; • 5. Group V: animals treated with 15 mg/kg DNase, no AraC; • 6. Group VI: animals treated with 45 mg/kg DNase, no AraC.
The vertical axis of FIG. 4 represents the survival measured in days after implantation with the L1210 leukemia cells. The six experimental groups are represented on the horizontal axis: 1—Negative Control; 2—AraC (positive control); 3—AraC+DNase II 15 mg/kg; 4—AraC+DNase II 45 mg/kg; 5—DNase II 15 mg/kg 6—DNase II 45 mg/kg.

[1] = system: white blood cell count (WBC); assay: Cyclophosphamide-induced neutropenia in mice (FIG. 3); assay type: in vivo; conditions: for Effect on typical early phase decline in WBC count (FIG. 3): cyclophosphamide 200 mg/kg IP Day 1, DNase I 25 mg/kg/day IV or GM-CSF 200 μg/kg/day SC on Days 2-5
Description: 30 female 10-12 week old BALB/C mice (obtained from Rappolovo animal house) were used in this experiment. […] Starting on Day 2, mice were then treated as follows: • 1. Group I (n=10): control (no treatment); • 2. […] Group III (n=10): animals were treated with human recombinant GM-CSF (Neostim, Pharmsynthez OJSC) at 200 μg/kg/day dose injected subcutaneously (SC) on Days 2-5. […] The graph in FIG. 3 summarizes the dynamics of the white blood cell count (WBC) in the three experimental groups. The vertical axis represents WBC with units of 10^9 WBC/L. The horizontal axis represents the number of days after cyclophosphamide injection.

gastrointestinal lesions = assay type: in vivo, rats; conditions: for Total number of lesions per group: 16 rats
Description: On Day 1, Etoposide (LANCE) 200 mg/kg and 5-fluorouracil (5-FU; EBEWE) 400 mg/kg were given orally via feeding needle in 500 μl of a 9% glucose solution. Animals were divided into 4 groups of 16 rats each. […] Group I: IV placebo (WFI); • 2. Group II: human recombinant DNase I (Pharmsynthez OJSC) at 1.5 mg/kg (3000 KU/kg) dose IV; • 3. Group III: human recombinant DNase I (Pharmsynthez OJSC) at 50 mg/kg (100000 KU/kg) dose IV; • 4. Group IV: cimetidine solution (Gedeon Richter) at 50 mg/kg dose IV.
36 hours later, all animals were euthanized and their stomachs were removed and analyzed for the presence of erosions and hemorrhages using an automated video analyzer system.

Wistar male rats = conditions: for Number of dead/out of total in group: monitored 2 weeks
Description: Group I: control group (no Doxorubicin, no DNase); • 2.
Animals were monitored during 2 weeks from the beginning of experiment for survival and weight.

thymocytes = assay: Con A-induced lymphocyte blast transformation of thymocytes from paclitaxel-treated mice; assay type: in vivo; conditions: paclitaxel 20 mg/kg IV, DNase gamma 2 mg/kg IP
Description: 10 male 6-week-old (CBAxCS7Bl6) F1 mice (obtained from Rappolovo animal house) were given a single 20 mg/kg dose of paclitaxel (Paclitaxel-Teva) IV. A group of 5 paclitaxel treated mice were injected IP 1 hour later with recombinant mouse DNase gamma (USCN Life Science Inc.) at 2 mg/kg dose IP. A group of 5 untreated mice were injected IP at the same time with 1 ml of placebo (WFI) to serve as the control. All mice were killed 24 hours later by cervical dislocation. The thymuses from each group were collected and homogenized in a separator in RPMI 1640 media supplemented with 10% fetal calf serum. The suspension of thymocytes was filtered and sedimented in a centrifuge at 400×g for 2 minutes and then resuspended with the same media. Thymocytes were plated into 96 well plates (900,000 cells per well in 200 μl of RPMI 1640 supplemented with 10% fetal calf serum (FCS)) and incubated for 32 hours at 37° C., 100% humidity and 5% CO2 atmosphere. Each well was then supplemented with ^3H thymidine (1 μCi/10 μl/well) and Concanavalin A (ConA; 50 μl: 1.25 μg/ml). After 24 hours of further incubation, thymocytes were harvested and dried. Labeled ^3H thymidine incorporation was measured using a Beckman scintillation counter.

myocardium = assay: Myocardial necrosis area in deceased rats challenged with doxorubicin (FIG. 1); assay type: in vivo; conditions: Doxorubicin 7.5 mg/kg IV, DNase I 15 mg/kg daily IP vs placebo
Description: FIG. 1 is a bar graph showing myocardial necrosis area in deceased rats challenged with sub-lethal IV doses of doxorubicin (7.5 mg/kg) and either daily IP injections of human recombinant DNase I (15 mg/kg) (black bar) or daily […] injections of placebo (WFI) (diagonal hatched bar). Serial myocardium microscopy samples from each heart were analyzed using an automated video analyzer to quantify the necrotic areas. The sum of necrotic area (Sna; nm^2) was calculated as a sum of necrotic areas in 30 serial slides from each individual autopsied heart (n=3 for DNase I-treated rats—black bar; n=5 for placebo-treated rats—diagonal hatched bar).
The hearts deceased rats challenged with sub-lethal doses of doxorubicin (7.5 mg/kg) from (Groups IV and V) were autopsied. Serial myocardium microscopy samples from each heart were analyzed using an automated video analyzer to quantify the necrotic areas. The sum of necrotic area (Sna; nm^2) was calculated as a sum of necrotic areas in 30 serial slides from each individual autopsied heart (n=3 for Group IV (FIG. 1, black bars); n=5 for Group V (FIG. 1, diagonal hatched bars)). Group IV received daily IP injections of human recombinant DNase I at 15 mg/kg dose, while Group V received daily IP injections of placebo (WFI).

Erlich carcinoma cells = assay: Survival of mice with Erlich carcinoma, DNase with or without radiotherapy; assay type: in vivo; conditions: for % Survival on Day 16: no radiotherapy
[2] = Body weight of mice with Erlich carcinoma, DNase with or without radiotherapy; assay type: in vivo
[3] = treatment 50 mg/kg IV 2 h after Etoposide 200 mg/kg + 5-FU 400 mg/kg per os
[4] = Doxorubicin 7.5 mg/kg/day IV 5 days with DNase I 15 mg/kg/day IP (Group IV) or placebo IP (Group V)
[5] = Doxorubicin 10.0 mg/kg/day IV 5 days with DNase I 15 mg/kg/day IP (Group VI) or placebo IP (Group VII)
[6] = of 16 rats, treatment 50 mg/kg IV after Etoposide 200 mg/kg + 5-FU 400 mg/kg per os
[7] = DNase I 15 mg/kg/day IP with Doxorubicin IV 5 days

For `Nc1ccn([C@@H]2O[C@H](CO)[C@@H](O)[C@@H]2O)c(=O)n1` [AraC, cytosine arabinoside], the “Survival after implantation with L1210 leukemia cells (FIG. 4)” value (L1210 leukemia cells) was “better survival rates”.

For “GM-CSF: human recombinant GM-CSF (Neostim, Pharmsynthez OJSC)”, the “Effect on typical early phase decline in WBC count (FIG. 3)” value [1] was “not able to prevent it”.

For `CN/C(=N/CCSCc1nc[nH]c1C)NC#N` [Cimetidine, cimetidine, reference compound], the “Total number of lesions per group” value (gastrointestinal lesions; [3]) was 40.

In the case of `COc1cccc2c1C(=O)c1c(O)c3c(c(O)c1C2=O)C[C@@](O)(C(=O)CO)C[C@@H]3O[C@H]1C[C@H](N)[C@H](O)[C@H](C)O1` [Doxorubicin, reference compound], the “Number of dead/out of total in group” value (Wistar male rats; [4]) is reported as 5/6 and the “Number of dead/out of total in group” value (Wistar male rats; [5]) is reported as 6/6.

B1: DNase gamma: recombinant mouse DNase gamma (USCN Life Science Inc.) (protein, UniProt O55070 26-310, looked up)
Deoxyribonuclease gamma: LRLCSFNVRSFGASKKENHEAMDIIVKIIKRCDLILLMEIKDSSNNICPMLMEKLNGNSRRSTTYNYVISSRLGRNTYKEQYAFVYKEKLVSVKTKYHYHDYQDGDTDVFSREPFVVWFHSPFTAVKDFVIVPLHTTPETSVKEIDELVDVYTDVRSQWKTENFIFMGDFNAGCSYVPKKAWQNIRLRTDPKFVWLIGDQEDTTVKKSTSCAYDRIVLCGQEIVNSVVPRSSGVFDFQKAYDLSEEEALDVSDHFPVEFKLQSSRAFTNNRKSVSLKKRKKGNRS
In the case of B1, the “Effect on taxane-induced suppression of thymocytes' proliferative activity” value (thymocytes) is reported as “ameliorates taxane-induced suppression”.

B2: human recombinant DNase I: human recombinant DNase I (Pharmsynthez OJSC), deoxyribonuclease enzyme (protein, UniProt P24855 23-282, looked up)
Deoxyribonuclease-1: LKIAAFNIQTFGETKMSNATLVSYIVQILSRYDIALVQEVRDSHLTAVGKLLDNLNQDAPDTYHYVVSEPLGRNSYKERYLFVYRPDQVSAVDSYYYDDGCEPCGNDTFNREPAIVRFFSRFTEVREFAIVPLHAAPGDAVAEIDALYDVYLDVQEKWGLEDVMLMGDFNAGCSYVRPSQWSSIRLWTSPTFQWLIPDSADTTATPTHCAYDRIVVAGMLLRGAVVPDSALPFNFQAAYGLSDQLAQAISDHYPVEVMLK
With B2 the “Effect on myocardial necrosis area (FIG. 1)” value (myocardium) was “decreases the myocardial necrosis area”, the “Effect on neutropenia induced by cyclophosphamide (FIG. 3)” value ([1]; cyclophosphamide 200 mg/kg IP Day 1, DNase I 25 mg/kg/day IV Days 2-5) was “ameliorates neutropenia” and the “Effect on typical early phase decline in WBC count (FIG. 3)” value [1] was “prevents the typical early phase decline in WBC count”. For the same molecule, the “Survival rates versus non-treated mice” value (Erlich carcinoma cells; DNase I alone (Groups 2 and 3)) was “better survival rates”, the “% Survival on Day 16” value (Erlich carcinoma cells; Group 2: DNAse I 20 mg/kg/day intramuscularly in 2 daily doses) was 40% and the “% Survival on Day 16” value (Erlich carcinoma cells; Group 3: DNAse I 40 mg/kg/day intramuscularly in 2 daily doses) was 50%. The “Survival of combination of radiation therapy and DNase versus either treatment alone” value (Erlich carcinoma cells; Groups 4 and 5, dose-dependent on DNase) was “clear survival advantage”, the “Total number of lesions per group” value (gastrointestinal lesions; treatment 1.5 mg/kg IV 2 h after Etoposide 200 mg/kg + 5-FU 400 mg/kg per os) was 60 and the “Total number of lesions per group” value (gastrointestinal lesions; [3]) was 16. For the same molecule, the “Achieved protection compared to 1.5 mg/kg DNase I dose and 50 mg/kg dose of cimetidine” value (gastrointestinal lesions; DNase I 50 mg/kg IV, rats treated with etoposide and 5-FU) was “significantly superior”, the “Number of lesion free animals” value (gastrointestinal lesions; of 16 rats, treatment 1.5 mg/kg IV after Etoposide 200 mg/kg + 5-FU 400 mg/kg per os) was 5 and the “Number of lesion free animals” value (gastrointestinal lesions; [6]) was 12. For the same molecule, the “Number of lesion free animals (percent)” value (gastrointestinal lesions; [6]) was 75%, the “Effect on chemotherapy-induced ulceration” value (gastrointestinal lesions; rats treated with etoposide and 5-FU, dose-dependent (1.5 and 50 mg/kg IV)) was “suppresses chemotherapy-induced ulceration” and the “Effect on lethality of doxorubicin” value (Wistar male rats; [7]) was “suppresses the lethality of doxorubicin”. The “Effect on life span of rats challenged with sub-lethal doses of doxorubicin” value (Wistar male rats; [7]) was “increases the life span”, the “Number of dead/out of total in group” value (Wistar male rats; [4]) was 3/6 and the “Number of dead/out of total in group” value (Wistar male rats; [5]) was 6/6. For the same molecule, the “Change in Median Body Weight on Day 16” value ([2]; Group 4: radiotherapy 200 cGy per day for 5 days plus DNAse I 20 mg/kg/day intramuscularly) was 0 g and the “Effect on body weight loss induced by radiotherapy” value ([2]; mice with Erlich carcinoma, radiotherapy plus DNase I) was “clearly prevents the body weight loss”.

From US10617743B2, “Method to improve safety and efficacy of anti-cancer therapy” (CLS Therapeutics Limited, priority 2014, dated 2020)
